In patent US20080181886A1 (published 2008):
Ends that are not written are not given here.

B1: TACI_d1 (first CRD of TACI, residues 32-67) (receptor)
chain: RSCPEEQYWDPLLGTCMSCKTICNHQSQRTCAAFCR
modifications: disulfide (positions not given here); also: more than one disulfide-bonded isomer, pairings not given here
B2: TACI_d1d2 (residues 21-116 of the TACI extracellular domain, C-terminal His-tag) (receptor)
chain: FPQGLWTGVAMRSCPEEQYWDPLLGTCMSCKTICNHQSQRTCAAFCRSLSCRKEQGKFYDHLLRDCISCASICGQHPKQCAYFCENKLRSPVNLPP

How the values were obtained:
[1] = target: T1, human BAFF (UniProt Q9Y275 82-285); assay: competitive SPR; interaction observed, curve not fitted adequately
[2] = target: T2, TRX-APRIL (mouse, UniProt Q9D777 104-241); assay: competitive SPR (BCMA-Fc)
T2 chain: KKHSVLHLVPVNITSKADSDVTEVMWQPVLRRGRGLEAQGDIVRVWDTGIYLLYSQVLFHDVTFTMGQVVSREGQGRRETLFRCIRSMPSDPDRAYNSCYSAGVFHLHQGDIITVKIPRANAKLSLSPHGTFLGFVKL

[3] = target: T2, TRX-APRIL; assay: competitive SPR
[4] = target: T1, human BAFF; assay: competitive SPR
[5] = target: T1, human BAFF; assay: competitive SPR; remark: listed apart in the source

T1 sequence (Q9Y275 82-285): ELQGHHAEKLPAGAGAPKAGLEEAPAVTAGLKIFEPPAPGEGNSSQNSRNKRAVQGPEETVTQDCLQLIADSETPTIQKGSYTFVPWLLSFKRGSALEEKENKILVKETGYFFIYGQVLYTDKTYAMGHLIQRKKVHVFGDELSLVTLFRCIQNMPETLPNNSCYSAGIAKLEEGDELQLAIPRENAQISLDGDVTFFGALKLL

| Binder | IC50 [1] | IC50 [2] | IC50 [3] | IC50 [4] | IC50 [5] |
| --- | --- | --- | --- | --- | --- |
| B1 | > 100 nM | 2000 nM | – | – | – |
| GSPWSLSCRKEQGKFYDHLLRDCISCASICGQHPKQCAYFCENKLR (receptor) [TACI_d2 (second cysteine-rich domain, CRD2, residues 68-109 of human TACI)] | – | – | 3.2 nM | 4 nM | 1.8 nM |
| B2 | – | 11 nM | – | – | 1.3 nM |
